Here are results for 1 molecule from patent US20250277767A1 (RAMOT AT TEL AVIV UNIVERSITY, published 2025).

Experiment [1] has as its target T1, EspB of Citrobacter rodentium (Citrobacter rodentium DBS100).
T1 construct: also called C. rodentium EspB
In words: western blot of culture supernatants, detection with mAb-EspB-B7. (A western blot detects proteins with antibodies after separation by electrophoresis.)

The target of experiment [2] is T2, native EspB of wild-type EPEC.
T2 construct: also called EspB in the assembled T3SS; WT EPEC
Described as above.

B1: mAb-EspB-B7 (antibody, V domains shown)
VH: EVQLLESGGGLVQPGGSLRLSCAASGFTFSHYAMNWVRQAPGKGLEWVSAINSNGDSTYYPDTVKDRFTISRDNSKNTLYLQMNSLRAEDTAVYYCARDRRAGYFDYWGQGTLVTVSS
VL: DIVLTQPPSASGTPGQRVTISCSGSRDNIGKNYVSWYQQLPGTAPKLLIYRNNQRPSGVPDRFSGSKSGTSASLAISGLRSEDEADYYCSAWDTSLNAYVFGPGTQLTVL
notes: also called mAb-B7; EspB-specific monoclonal antibody
Regarding B1, the binding result in experiment [1] and in experiment [2] was “binds” each time.
